Here are results for 15 molecules from US20240352133A1.

The target of experiment [1] is Recombinant human his-tagged IGF 1R extracellular domain protein (human) (UniProt P08069). Nature of the experiment: SPR, captured antibody, pH 7.4.
Experiment [2] has the same target. The experiment can be described thus: SPR, captured antibody, dissociation at pH 6.

B1: VRDN-03051 (antibody, V domains shown)
VH: QVELVESGGGVVQPGRSQRLSCAASGFTFSSYGMHWVRQAPGKGLEWVAIIWFDGSSTYYADSVRGRFTISRDNSKNTLYLQMNSLRAEDTAVYFCARELGRRYFDLWGRGTLVSVSS
VL: EIVLTQSPATLSLSPGERATLSCRASQSVSSYLAWYQQKPGQAPRLLIYDAHKRATGIPARFSGSGSGTDFTLTISSLEPEDFAVYYCQQRSKWPPWTFGQGTKVESK
The Kd is the free concentration of one partner at which half of the binding sites on the other are occupied at equilibrium, for simple one-to-one binding. A word on the koff: it is the first-order rate constant of dissociation. For orientation: kon means a measure of how fast the partners come together. On to B1, for which, in experiment [1], the equilibrium dissociation constant (Kd) is 1.86 nM, the koff stood at 0.000203 s⁻¹ and the kon was determined as 110000 M⁻¹ s⁻¹. Moreover, in experiment [2], the Kd came to 2.12 nM, the koff was found to be 0.000162 s⁻¹ and the kon was 76200 M⁻¹ s⁻¹.

B2: VRDN-03099 (antibody, V domains shown)
VH: QVQLVESGGGVVQPGRSLRLSCAASGFTFSSYSMHWVRQAPGKGLEWVAIIWFDGSSKYYVDSVKGRFTISRDNSKNTLYLQMNSLRAEDTAVYYCARELGRRYFDIWGRGTLVTVSS
VL: EIVLTQSPATLSLSPGERATLSCRASQGVSSYLAWYQQKPGQAPRLLIYGASTRATGIPARFSGSGSGTDFTLTISSLEPEDFAVYYCQQRSRWPPWTFGQGTKLEIK
As to B2, in experiment [1], the Kd was determined as 2.18 nM, the koff turned out to be 0.000139 s⁻¹ and the on-rate (kon) is 63700 M⁻¹ s⁻¹. In experiment [2], the Kd stood at 1.34 nM, the koff amounted to 0.000296 s⁻¹ and the kon was found to be 221000 M⁻¹ s⁻¹.

B3: VRDN-03055 (antibody, V domains shown)
VH: QVELVESGGGVVQPGRSQRLSCAASGFTFSSYGMHWVRQAPGKGLEWVAIIWFDGSSTYYADSVRGRFTISRDNSKNTLYLQMNSLRAEDTAVYFCARELGRRYFDLWGRGTLVSVSS
VL: EIVLTQSPATLSLSPGERATLSCRASQSVSSYLAWYQQKPGQAPRLLIYDASKRAHGIPARFSGSGSGTDFTLTISSLEPEDFAVYYCQQRSKWPPWTFGQGTKVESK
With B3, in experiment [1], the Kd amounted to 1.92 nM, the koff was 0.000188 s⁻¹ and the kon amounted to 97700 M⁻¹ s⁻¹. Also, in experiment [2], the Kd was found to be 1.61 nM, the koff was 0.00014 s⁻¹ and the kon is 87000 M⁻¹ s⁻¹.

B4: VRDN-03054 (antibody, V domains shown)
VH: QVELVESGGGVVQPGRSQRLSCAASGFTFSSYGMHWVRQAPGKGLEWVAIIWFDGSSTYYADSVRGRFTISRDNSKNTLYLQMNSLRAEDTAVYFCARELGRRYFDLWGRGTLVSVSS
VL: EIVLTQSPATLSLSPGERATLSCRASQSVSSYLAWYQQKPGQAPRLLIYDASKRHTGIPARFSGSGSGTDFTLTISSLEPEDFAVYYCQQRSKWPPWTFGQGTKVESK
On to B4, for which, in experiment [1], the equilibrium dissociation constant (Kd) amounted to 1.11 nM, the koff stood at 0.000104 s⁻¹ and the kon came out at 93500 M⁻¹ s⁻¹. In addition, in experiment [2], the Kd was 0.866 nM, the koff was 8.18e-05 s⁻¹ and the association rate constant (kon) turned out to be 94500 M⁻¹ s⁻¹.

B5: VRDN-03053 (antibody, V domains shown)
VH: QVELVESGGGVVQPGRSQRLSCAASGFTFSSYGMHWVRQAPGKGLEWVAIIWFDGSSTYYADSVRGRFTISRDNSKNTLYLQMNSLRAEDTAVYFCARELGRRYFDLWGRGTLVSVSS
VL: EIVLTQSPATLSLSPGERATLSCRASQSVSSYLAWYQQKPGQAPRLLIYDASKHATGIPARFSGSGSGTDFTLTISSLEPEDFAVYYCQQRSKWPPWTFGQGTKVESK
In the case of B5, in experiment [1], the Kd was determined as 1.79 nM, the koff stood at 0.000188 s⁻¹ and the kon worked out at 105000 M⁻¹ s⁻¹. Further, in experiment [2], the Kd turned out to be 1.67 nM, the koff is 0.00016 s⁻¹ and the kon is 95500 M⁻¹ s⁻¹.

B6: VRDN-03101 (antibody, V domains shown)
VH: QVQLVESGGGVVQPGRSLRLSCAASGFTFSDYTMHWVRQAPGKGLEWVAIIWFDGSSKYYADSVKGRFTISRDNSKNTLYLQMNSLRAEDTAVYYCARELGRRYFDIWGRGTLVTVSS
VL: EIVLTQSPATLSLSPGERATLSCRASQGVSSYLAWYQQKPGQAPRLLIYGASTRATGIPARFSGSGSGTDFTLTISSLEPEDFAVYYCQQRSRWPPWTFGQGTKLEIK
On to B6, for which, in experiment [1], the Kd was determined as 0.785 nM, the koff came out at 7.02e-05 s⁻¹ and the kon stood at 89300 M⁻¹ s⁻¹. In experiment [2], the Kd was 1.23 nM, the koff came to 0.000268 s⁻¹ and the kon was found to be 219000 M⁻¹ s⁻¹.

B7: VRDN-03100 (second entry of that label; VH and VL pair SEQ ID NO: 223) (antibody, V domains shown)
VH: QVQLVESGGGVVQPGRSLRLSCAASGFTFSSYSMHWVRQAPGKGLEWVAIIWFDGSSKYYPGSVKGRFTISRDNSKNTLYLQMNSLRAEDTAVYYCARELGRRYFDIWGRGTLVTVSS
VL: EIVLTQSPATLSLSPGERATLSCRASQGVSSYLAWYQQKPGQAPRLLIYGASTRATGIPARFSGSGSGTDFTLTISSLEPEDFAVYYCQQRSRWPPWTFGQGTKLEIK
As for B7, in experiment [1], the Kd amounted to 5.52 nM, the koff was 0.00134 s⁻¹ and the kon was 244000 M⁻¹ s⁻¹. Also, in experiment [2], the Kd worked out at 1.69 nM, the koff was 0.00107 s⁻¹ and the kon was 630000 M⁻¹ s⁻¹.

B8: VRDN-03106 (antibody, V domains shown)
VH: QVQLVESGGGVVQPGRSLRLSCAASGFTFSDHYMDWVRQAPGKGLEWVAIIWFDGSSKYYPGSVKGRFTISRDNSKNTLYLQMNSLRAEDTAVYYCARELGRRYFDIWGRGTLVTVSS
VL: EIVLTQSPATLSLSPGERATLSCRASQGVSSYLAWYQQKPGQAPRLLIYGASTRATGIPARFSGSGSGTDFTLTISSLEPEDFAVYYCQQRSRWPPWTFGQGTKLEIK
Consider B8, for which, in experiment [1], the dissociation constant Kd was found to be 16.1 nM, the koff turned out to be 0.00105 s⁻¹ and the kon was 65100 M⁻¹ s⁻¹. Moreover, in experiment [2], the Kd came out at 1.81 nM, the koff worked out at 0.00218 s⁻¹ and the kon was found to be 1.2e+06 M⁻¹ s⁻¹.

B9: VRDN-03105 (antibody, V domains shown)
VH: QVQLVESGGGVVQPGRSLRLSCAASGFTFSDHYMDWVRQAPGKGLEWVAIIWFDGSSKYYVDSVKGRFTISRDNSKNTLYLQMNSLRAEDTAVYYCARELGRRYFDIWGRGTLVTVSS
VL: EIVLTQSPATLSLSPGERATLSCRASQGVSSYLAWYQQKPGQAPRLLIYGASTRATGIPARFSGSGSGTDFTLTISSLEPEDFAVYYCQQRSRWPPWTFGQGTKLEIK
In the case of B9, in experiment [1], the Kd is 0.89 nM, the koff amounted to 0.000361 s⁻¹ and the kon was determined as 405000 M⁻¹ s⁻¹. In experiment [2], the Kd was determined as 1.99 nM, the koff was 0.000281 s⁻¹ and the kon is 141000 M⁻¹ s⁻¹.

B10: VRDN-03104 (antibody, V domains shown)
VH: QVQLVESGGGVVQPGRSLRLSCAASGFTFSDHYMDWVRQAPGKGLEWVAIIWFDGSSKYYADSVKGRFTISRDNSKNTLYLQMNSLRAEDTAVYYCARELGRRYFDIWGRGTLVTVSS
VL: EIVLTQSPATLSLSPGERATLSCRASQGVSSYLAWYQQKPGQAPRLLIYGASTRATGIPARFSGSGSGTDFTLTISSLEPEDFAVYYCQQRSRWPPWTFGQGTKLEIK
With B10, in experiment [1], the Kd amounted to 3.05 nM, the koff worked out at 0.000259 s⁻¹ and the kon is 85000 M⁻¹ s⁻¹. In experiment [2], the Kd stood at 1.63 nM, the koff is 0.000283 s⁻¹ and the kon is 173000 M⁻¹ s⁻¹.

B11: VRDN-03098 (antibody, V domains shown)
VH: QVQLVESGGGVVQPGRSLRLSCAASGFTFSSYSMHWVRQAPGKGLEWVAIIWFDGSSKYYADSVKGRFTISRDNSKNTLYLQMNSLRAEDTAVYYCARELGRRYFDIWGRGTLVTVSS
VL: EIVLTQSPATLSLSPGERATLSCRASQGVSSYLAWYQQKPGQAPRLLIYGASTRATGIPARFSGSGSGTDFTLTISSLEPEDFAVYYCQQRSRWPPWTFGQGTKLEIK
B11: in experiment [1], the Kd was determined as 2.05 nM, the koff amounted to 0.000135 s⁻¹ and the kon worked out at 65900 M⁻¹ s⁻¹. In addition, in experiment [2], the Kd came out at 1.24 nM, the koff is 0.000306 s⁻¹ and the kon amounted to 247000 M⁻¹ s⁻¹.

B12: VRDN-03108 (antibody, V domains shown)
VH: QVQLVESGGGVVQPGRSLRLSCAASGFTFSSYSMHWVRQAPGKGLEWVAIIWFDGSSKYYVDSVKGRFTISRDNSKNTLYLQMNSLRAEDTAVYYCARELGRRYFDIWGRGTLVTVSS
VL: EIVMTQSPATLSVSPGERATLSCRASQGVSSYLAWYQQKPGQAPRLLIYGASTRATGIPARFSGSGSGTEFTLTISSLQSEDFAVYYCQQRSRWPPWTFGQGTKLEIK
On to B12, for which, in experiment [1], the Kd was 3.97 nM, the off-rate constant (koff) worked out at 0.000195 s⁻¹ and the kon worked out at 49000 M⁻¹ s⁻¹. Moreover, in experiment [2], the Kd came out at 1.85 nM, the koff turned out to be 0.000413 s⁻¹ and the kon turned out to be 224000 M⁻¹ s⁻¹.

B13: VRDN-03107 (antibody, V domains shown)
VH: QVQLVESGGGVVQPGRSLRLSCAASGFTFSSYSMHWVRQAPGKGLEWVAIIWFDGSSKYYADSVKGRFTISRDNSKNTLYLQMNSLRAEDTAVYYCARELGRRYFDIWGRGTLVTVSS
VL: EIVMTQSPATLSVSPGERATLSCRASQGVSSYLAWYQQKPGQAPRLLIYGASTRATGIPARFSGSGSGTEFTLTISSLQSEDFAVYYCQQRSRWPPWTFGQGTKLEIK
For the molecule B13, in experiment [1], the equilibrium dissociation constant (Kd) was determined as 2.69 nM, the koff is 0.000156 s⁻¹ and the kon is 58000 M⁻¹ s⁻¹. Also, in experiment [2], the Kd turned out to be 1.42 nM, the koff was 0.000344 s⁻¹ and the on-rate constant (kon) turned out to be 242000 M⁻¹ s⁻¹.

B14: VRDN-03102 (antibody, V domains shown)
VH: QVQLVESGGGVVQPGRSLRLSCAASGFTFSDYTMHWVRQAPGKGLEWVAIIWFDGSSKYYVDSVKGRFTISRDNSKNTLYLQMNSLRAEDTAVYYCARELGRRYFDIWGRGTLVTVSS
VL: EIVLTQSPATLSLSPGERATLSCRASQGVSSYLAWYQQKPGQAPRLLIYGASTRATGIPARFSGSGSGTDFTLTISSLEPEDFAVYYCQQRSRWPPWTFGQGTKLEIK
B14: in experiment [1], the Kd stood at 2.68 nM, the off-rate constant (koff) came to 0.000173 s⁻¹ and the kon is 64500 M⁻¹ s⁻¹. In experiment [2], the Kd was 1.46 nM, the koff was found to be 0.000319 s⁻¹ and the kon turned out to be 218000 M⁻¹ s⁻¹.

B15: VRDN-03103 (antibody, V domains shown)
VH: QVQLVESGGGVVQPGRSLRLSCAASGFTFSDYTMHWVRQAPGKGLEWVAIIWFDGSSKYYPGSVKGRFTISRDNSKNTLYLQMNSLRAEDTAVYYCARELGRRYFDIWGRGTLVTVSS
VL: EIVLTQSPATLSLSPGERATLSCRASQGVSSYLAWYQQKPGQAPRLLIYGASTRATGIPARFSGSGSGTDFTLTISSLEPEDFAVYYCQQRSRWPPWTFGQGTKLEIK
On to B15, for which, in experiment [1], the Kd worked out at 12.8 nM, the koff turned out to be 0.00637 s⁻¹ and the kon worked out at 498000 M⁻¹ s⁻¹. Moreover, in experiment [2], the equilibrium dissociation constant (Kd) amounted to 1.44 nM, the koff came to 0.00216 s⁻¹ and the kon is 1.5e+06 M⁻¹ s⁻¹.
